Measurements from article PMC6494689.

Tests used:
[1] = biological target: BbRAG1L NBD* domain (purified NBD* protein) (Branchiostoma belcheri); assay: SEC-MALS
[2] = biological target: MBP-tagged core BbRAG1L (cBbRAG1L; aa 468-1136) (Branchiostoma belcheri); assay: SEC-MALS

Substance	stoichiometry N [1]	stoichiometry N (BbRAG2L per cBbRAG1L (2:2)) [2]
BbRAG1L NBD* domain (purified NBD* protein) (domain or fragment)	2	–
MBP-tagged full length BbRAG2L (natural protein)	–	1
